Substrate in series [1]: O=P(O)(O)OC1O[C@@H](CO)[C@@H](O)[C@@H](O)[C@@H]1O
Kind of series: phosphate release, malachite green. The series is classed as biochemical, Solanum lycopersicum. Conditions: 3.5 mM MgCl2, 50 mM Tris-Cl pH 7.0, 25 °C.

Substrate in series [2]: O=P(O)(O)O[C@@H]1[C@@H](O)[C@H](O)[C@@H](O)[C@H](O)[C@@H]1O
Kind of series: phosphate release, malachite green. The class given is biochemical, Solanum lycopersicum. Conditions: 3.5 mM MgCl2, 50 mM Tris-Cl pH 7.0, 25 °C.

What is called Km is the concentration of substrate that gives half-maximal velocity.

B1: SlIMP3 (Solanum lycopersicum) (protein)
chain: MAQNGSVEQFLDVAVEAAKKAGEIIREGFYKTKHVEHKGMVDLVTETDKACEDFIFNHLKQRFPSHKFIGEETTAACGNFELTDEPTWIVDPLDGTTNFVHGFPFVCVSIGLTIEKKPTVGVVYNPIIDELFTGIDGKGAFLNGKPIKVSSQSELVKALLATEAGTNRDKLVVDATTGRINSLLFKVRSLRMCGSCALNLCGVACGRLDLFYELEFGGPWDVAGGAVIVKEAGGFVFDPSGSEFDLTARRVAATNAHLKDAFIKALNE
notes: tag removal not mentioned
As to B1, the Km is 0.29 mM in series [1] and 0.28 mM in series [2].

Source of the values: paper PMC9129080, “Control of fruit softening and Ascorbic acid accumulation by manipulation of SlIMP3 in tomato” (Plant Biotechnology Journal, 2022).
